Source: patent publication EP4563596A1 (OncoSpear ApS, dated 2025)
Numbering of substitutions follows the chain as printed. Names may count otherwise.

B1: OS000 (antibody)
heavy: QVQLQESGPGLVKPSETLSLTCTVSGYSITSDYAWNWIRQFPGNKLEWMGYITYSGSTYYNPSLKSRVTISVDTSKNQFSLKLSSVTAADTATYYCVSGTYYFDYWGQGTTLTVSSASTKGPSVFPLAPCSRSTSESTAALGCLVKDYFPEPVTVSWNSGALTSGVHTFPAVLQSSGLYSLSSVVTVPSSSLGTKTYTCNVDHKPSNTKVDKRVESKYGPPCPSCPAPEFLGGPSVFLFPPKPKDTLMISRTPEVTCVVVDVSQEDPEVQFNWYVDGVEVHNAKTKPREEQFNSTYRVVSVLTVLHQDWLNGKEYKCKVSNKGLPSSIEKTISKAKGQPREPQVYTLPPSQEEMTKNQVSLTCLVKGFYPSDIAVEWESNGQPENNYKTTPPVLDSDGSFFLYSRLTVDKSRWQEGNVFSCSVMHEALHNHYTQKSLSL
light: DIVMTQSPSSLSASVGDRVTITCRASQSVSSDVAWFQQKPGKSPKPLIYYASNRYSGVPSRFSGSGSGTDFTLTISSLQAEDFAVYFCGQDYTSPRTFGGGTKLEIKRTVAAPSVFIFPPSDEQLKSGTASVVCLLNNFYPREAKVQWKVDNALQSGNSQESVTEQDSKDSTYSLSSTLTLSKADYEKHKVYACEVTHQGLSSPVTKSFNRGEC
B2: OS005 (antibody, human IgG1, kappa)
heavy: QVQLQESGPGLVKPSETLSLTCTVSGYSITSDYAWNWIRQFPGNKLEWMGYITYSGSTYYNPSLKSRVTISVDTSKNQFSLKLSSVTAADTATYYCVSGTYYFDYWGQGTTLTVSSASTKGPSVFPLAPSSKSTSGGTAALGCLVKDYFPEPVTVSWNSGALTSGVHTFPAVLQSSGLYSLSSVVTVPSSSLGTQTYICNVNHKPSNTKVDKKVEPKSCDKTHTCPPCPAPELVGGPSVFLLPPKPKDTLMISRTPEVTCVVVDVSHEDPEVKFNWYVDGVEVHNAKTKPPEEQYNSTLRVVSVLTVLHQDWLNGKEYKCKVSNKALPAPIEKTISKAKGQPREPQVYTLPPSRDELTKNQVSLTCLVKGFYPSDIAVEWESNGQPENNYKTTPLVLDSDGSFFLYSKLTVDKSRWQQGNVFSCSVMHEALHNHYTQKSLSLSPGK
light: B1 light
B3: OS010 (antibody, human IgG1, kappa)
heavy: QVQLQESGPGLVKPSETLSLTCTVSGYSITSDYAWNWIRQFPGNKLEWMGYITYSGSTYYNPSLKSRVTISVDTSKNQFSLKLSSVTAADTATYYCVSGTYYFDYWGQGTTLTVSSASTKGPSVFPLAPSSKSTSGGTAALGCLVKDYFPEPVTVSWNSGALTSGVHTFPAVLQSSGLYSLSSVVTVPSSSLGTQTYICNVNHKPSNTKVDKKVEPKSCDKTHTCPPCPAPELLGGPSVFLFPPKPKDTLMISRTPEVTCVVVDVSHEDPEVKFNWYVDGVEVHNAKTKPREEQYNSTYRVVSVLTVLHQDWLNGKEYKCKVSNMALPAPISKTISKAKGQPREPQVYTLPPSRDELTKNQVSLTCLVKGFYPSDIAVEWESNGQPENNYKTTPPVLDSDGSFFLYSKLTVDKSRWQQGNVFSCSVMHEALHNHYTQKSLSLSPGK
light: B1 light
B4: OS006 (antibody, human IgG1, kappa)
heavy: B2 heavy with V234L, S238D, L242F, P291R, L299Y, A329L, I331E, L395P
light: B1 light
B5: OS008 (antibody, human IgG1, kappa)
heavy: B2 heavy with V234L, G235A, S238D, L242F, P291R, L299Y, A329L, I331E, L395P
light: B1 light
B6: OS004 (antibody, human IgG1, kappa)
heavy: QVQLQESGPGLVKPSETLSLTCTVSGYSITSDYAWNWIRQFPGNKLEWMGYITYSGSTYYNPSLKSRVTISVDTSKNQFSLKLSSVTAADTATYYCVSGTYYFDYWGQGTTLTVSSASTKGPSVFPLAPSSKSTSGGTAALGCLVKDYFPEPVTVSWNSGALTSGVHTFPAVLQSSGLYSLSSVVTVPSSSLGTQTYICNVNHKPSNTKVDKKVEPKSCDKTHTCPPCPAPELLGGPSVFLFPPKPKDTLMISRTPEVTCVVVDVSHEDPEVKFNWYVDGVEVHNAKTKPREEQYNYARVVSVLTVLHQDWLNGKEYKCKVSNKALPAPIAATISKAKGQPREPQVYTLPPSRDELTKNQVSLTCLVKGFYPSDIAVEWESNGQPENNYKTTPPVLDSDGSFFLYSKLTVDKSRWQQGNVFSCSVMHEALHNHYTQKSLSLSPGK
light: B1 light
B7: OS003 (antibody, human IgG1, kappa)
heavy: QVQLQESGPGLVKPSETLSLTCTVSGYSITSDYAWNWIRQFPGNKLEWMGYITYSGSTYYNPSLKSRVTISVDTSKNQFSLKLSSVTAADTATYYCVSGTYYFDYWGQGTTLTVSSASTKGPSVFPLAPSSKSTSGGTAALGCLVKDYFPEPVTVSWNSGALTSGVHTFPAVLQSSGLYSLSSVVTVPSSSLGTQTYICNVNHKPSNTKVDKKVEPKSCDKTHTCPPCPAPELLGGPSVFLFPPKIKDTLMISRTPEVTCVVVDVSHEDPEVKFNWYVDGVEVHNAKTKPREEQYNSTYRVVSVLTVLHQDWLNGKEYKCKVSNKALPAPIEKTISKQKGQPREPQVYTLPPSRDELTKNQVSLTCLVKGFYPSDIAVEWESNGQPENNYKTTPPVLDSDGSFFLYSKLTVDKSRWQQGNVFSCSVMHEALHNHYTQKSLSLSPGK
light: B1 light
B8: OS016 (antibody, human IgG1, kappa)
heavy: B2 heavy with V234L, G235A, L242F, S266E, H267F, P291R, L299Y, S323T, I331E, L395P
light: B1 light
B9: OS002 (antibody, human IgG1, kappa)
heavy: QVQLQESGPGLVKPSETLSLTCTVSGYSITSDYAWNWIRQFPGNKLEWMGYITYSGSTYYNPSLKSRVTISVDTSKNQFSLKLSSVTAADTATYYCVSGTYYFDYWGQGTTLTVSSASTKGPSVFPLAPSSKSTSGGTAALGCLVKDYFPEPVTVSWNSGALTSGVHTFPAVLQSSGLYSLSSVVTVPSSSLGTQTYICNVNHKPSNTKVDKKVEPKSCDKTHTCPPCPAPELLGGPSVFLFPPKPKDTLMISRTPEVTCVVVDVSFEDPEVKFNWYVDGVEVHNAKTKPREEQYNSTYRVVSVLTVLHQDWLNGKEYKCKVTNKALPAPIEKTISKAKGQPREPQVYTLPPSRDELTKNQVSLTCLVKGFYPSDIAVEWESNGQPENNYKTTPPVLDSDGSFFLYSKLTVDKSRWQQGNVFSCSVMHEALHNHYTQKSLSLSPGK
light: B1 light
B10: OS009 (antibody, human IgG1, kappa)
heavy: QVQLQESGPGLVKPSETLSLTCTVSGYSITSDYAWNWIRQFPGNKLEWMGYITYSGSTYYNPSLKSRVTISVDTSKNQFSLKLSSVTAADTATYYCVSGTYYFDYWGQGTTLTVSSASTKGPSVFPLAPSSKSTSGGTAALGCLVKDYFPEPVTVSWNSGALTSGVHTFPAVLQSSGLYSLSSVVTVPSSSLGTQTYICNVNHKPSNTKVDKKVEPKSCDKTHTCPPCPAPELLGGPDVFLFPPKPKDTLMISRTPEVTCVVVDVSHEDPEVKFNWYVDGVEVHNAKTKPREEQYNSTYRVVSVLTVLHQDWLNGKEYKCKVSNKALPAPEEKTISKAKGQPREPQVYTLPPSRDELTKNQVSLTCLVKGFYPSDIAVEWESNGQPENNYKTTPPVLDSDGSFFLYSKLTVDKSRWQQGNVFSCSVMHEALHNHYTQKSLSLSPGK
light: B1 light
B11: OS007 (antibody, human IgG1, kappa)
heavy: B2 heavy with V234L, G235A, S238D, L242F, P291R, L299Y, I331E, L395P
light: B1 light
B12: OS001 (antibody, human IgG1, kappa)
heavy: not shown
light: B1 light
B13: OS017 (antibody, human IgG1, kappa)
heavy: not shown
light: B1 light
modifications: afucosylated glycan (GlymaxX expression)
B14: OS018 (antibody, human IgG1, kappa)
heavy: not shown
light: B1 light
notes: also called IgG1 HC D72E
B15: OS019 (antibody, human IgG1, kappa)
heavy: not shown
light: B1 light with G89Q
notes: also called IgG1 LC G89Q
B16: OS020 (antibody, human IgG1, kappa)
heavy: not shown
light: B1 light with G89Q
notes: IgG1, HC D72E and LC G89Q, wild type glycosylation; also called IgG1 HC D72E LC G89Q
B17: OS022 (antibody, human IgG1, kappa)
heavy: not shown
light: B1 light
modifications: afucosylated glycan (GlymaxX expression)
notes: IgG1, HC D72E, afucosylated; also called IgG1 HC D72E afucosylated
B18: OS023 (antibody, human IgG1, kappa)
heavy: not shown
light: B1 light with G89Q
modifications: afucosylated glycan (GlymaxX expression)
notes: IgG1, HC D72E and LC G89Q, afucosylated; also called IgG1 HC D72E LC G89Q afucosylated

target: T1, CD16 V158 (FcγRIIIA) on Jurkat reporter cells (human, UniProt P08637 17-254); experiment: cell-based or functional assay
T1 sequence (P08637 17-254 F176V): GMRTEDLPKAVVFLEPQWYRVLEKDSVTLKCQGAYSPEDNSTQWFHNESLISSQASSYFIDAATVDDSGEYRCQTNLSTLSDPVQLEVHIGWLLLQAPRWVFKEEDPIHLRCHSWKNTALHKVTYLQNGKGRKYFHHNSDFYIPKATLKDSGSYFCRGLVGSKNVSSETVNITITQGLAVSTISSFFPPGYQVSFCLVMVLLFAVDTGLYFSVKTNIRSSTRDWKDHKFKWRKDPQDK

Binder	Relative EC50 ADCC V158 (high); target cells FlpIn293-hCD163
B1	0 relative (EC50 OS001/EC50 construct)
B2	2.2 relative (EC50 OS001/EC50 construct)
B3	1.4 relative (EC50 OS001/EC50 construct)
B4	5.9 relative (EC50 OS001/EC50 construct)
B5	4.5 relative (EC50 OS001/EC50 construct)
B6	1.6 relative (EC50 OS001/EC50 construct)
B7	1.5 relative (EC50 OS001/EC50 construct)
B8	3.7 relative (EC50 OS001/EC50 construct)
B9	0.9 relative (EC50 OS001/EC50 construct)
B10	7.6 relative (EC50 OS001/EC50 construct)
B11	4 relative (EC50 OS001/EC50 construct)
B12	1 relative (EC50 OS001/EC50 construct)
B13	11.2 relative (EC50 OS001/EC50 construct)

target: T2, CD16 F158 (FcγRIIIA) on Jurkat reporter cells (human, UniProt P08637 17-254); experiment: cell-based or functional assay
T2 sequence (P08637 17-254): as the sequence (P08637 17-254 F176V) above, with V160F counted along it

Binder	Relative EC50 ADCC F158 (low); target cells FlpIn293-hCD163
B1	0 relative (EC50 OS001/EC50 construct)
B2	5.4 relative (EC50 OS001/EC50 construct)
B3	1.2 relative (EC50 OS001/EC50 construct)
B4	2.5 relative (EC50 OS001/EC50 construct)
B5	3.2 relative (EC50 OS001/EC50 construct)
B6	3.5 relative (EC50 OS001/EC50 construct)
B7	1.3 relative (EC50 OS001/EC50 construct)
B8	4 relative (EC50 OS001/EC50 construct)
B9	1.5 relative (EC50 OS001/EC50 construct)
B10	7 relative (EC50 OS001/EC50 construct)
B11	5.6 relative (EC50 OS001/EC50 construct)
B12	1 relative (EC50 OS001/EC50 construct)
B13	17.6 relative (EC50 OS001/EC50 construct)

target: T1, CD16 V158 (FcγRIIIA) on Jurkat reporter …; experiment: cell-based or functional assay; remark: another data set of the same source

Binder	Relative EC50 ADCC (CD16 V158); target cells M2c macrophages
B2	23 relative (normalized to OS001)
B4	26 relative (normalized to OS001)
B10	23 relative (normalized to OS001)
B12	1 relative (normalized to OS001)
B13	39 relative (normalized to OS001)

target: T2, CD16 F158 (FcγRIIIA) on Jurkat reporter …; experiment: cell-based or functional assay; remark: another data set of the same source

Binder	Relative EC50 ADCC (CD16 F158); target cells M2c macrophages
B2	13 relative (normalized to OS001)
B4	71 relative (normalized to OS001)
B10	12 relative (normalized to OS001)
B12	1 relative (normalized to OS001)
B13	111 relative (normalized to OS001)

target: full length human CD163 on cells (human, UniProt Q86VB7 42-1156); experiment: cell-based or functional assay
Sequence (Q86VB7 42-1156 limits assumed): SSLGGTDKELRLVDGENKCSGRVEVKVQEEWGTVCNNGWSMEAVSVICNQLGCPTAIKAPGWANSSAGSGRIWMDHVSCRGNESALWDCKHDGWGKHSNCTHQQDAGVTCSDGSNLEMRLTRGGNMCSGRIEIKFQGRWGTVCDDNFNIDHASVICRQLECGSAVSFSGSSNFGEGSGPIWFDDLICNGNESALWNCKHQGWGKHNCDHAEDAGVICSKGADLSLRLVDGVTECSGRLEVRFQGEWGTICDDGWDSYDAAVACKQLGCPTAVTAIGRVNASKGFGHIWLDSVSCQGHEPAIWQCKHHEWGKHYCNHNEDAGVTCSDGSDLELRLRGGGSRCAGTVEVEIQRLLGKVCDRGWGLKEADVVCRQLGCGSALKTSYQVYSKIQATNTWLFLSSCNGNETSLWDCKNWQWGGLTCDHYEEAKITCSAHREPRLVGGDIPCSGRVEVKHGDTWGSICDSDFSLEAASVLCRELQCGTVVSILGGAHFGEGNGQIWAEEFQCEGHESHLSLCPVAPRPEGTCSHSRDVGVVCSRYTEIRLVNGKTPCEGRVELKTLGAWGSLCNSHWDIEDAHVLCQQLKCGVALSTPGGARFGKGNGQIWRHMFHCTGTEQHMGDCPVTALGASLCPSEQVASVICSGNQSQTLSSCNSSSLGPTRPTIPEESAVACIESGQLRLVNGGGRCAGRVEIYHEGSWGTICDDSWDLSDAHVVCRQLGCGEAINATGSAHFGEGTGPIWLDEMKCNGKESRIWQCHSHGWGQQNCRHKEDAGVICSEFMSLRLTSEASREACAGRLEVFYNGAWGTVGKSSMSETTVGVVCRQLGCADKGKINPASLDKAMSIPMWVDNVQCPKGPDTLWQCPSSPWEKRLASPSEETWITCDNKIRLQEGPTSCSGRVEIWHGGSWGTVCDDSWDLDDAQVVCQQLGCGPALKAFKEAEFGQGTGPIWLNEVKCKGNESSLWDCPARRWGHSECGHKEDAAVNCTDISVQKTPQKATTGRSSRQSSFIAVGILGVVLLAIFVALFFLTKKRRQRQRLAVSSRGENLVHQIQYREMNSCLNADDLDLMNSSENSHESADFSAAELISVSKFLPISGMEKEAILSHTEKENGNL

Binder	EC50 of PBMC mediated cytotoxicity in CD163 expressing macrophages
B10	2.8 ng/mL
B13	2.6 ng/mL

target: T3, human CD163 domain 1-9, recombinant, immobilized on a CM5 sensor chip (human, UniProt Q86VB7 42-1050, limits assumed); experiment: SPR (Biacore T200), human CD163 domain 1-9 immobilised on CM5 chip, antibody injected, 1:1 kinetic fit
T3 construct: the whole entry is named; also called immobilized CD163
T3 sequence (Q86VB7 42-1050 limits assumed): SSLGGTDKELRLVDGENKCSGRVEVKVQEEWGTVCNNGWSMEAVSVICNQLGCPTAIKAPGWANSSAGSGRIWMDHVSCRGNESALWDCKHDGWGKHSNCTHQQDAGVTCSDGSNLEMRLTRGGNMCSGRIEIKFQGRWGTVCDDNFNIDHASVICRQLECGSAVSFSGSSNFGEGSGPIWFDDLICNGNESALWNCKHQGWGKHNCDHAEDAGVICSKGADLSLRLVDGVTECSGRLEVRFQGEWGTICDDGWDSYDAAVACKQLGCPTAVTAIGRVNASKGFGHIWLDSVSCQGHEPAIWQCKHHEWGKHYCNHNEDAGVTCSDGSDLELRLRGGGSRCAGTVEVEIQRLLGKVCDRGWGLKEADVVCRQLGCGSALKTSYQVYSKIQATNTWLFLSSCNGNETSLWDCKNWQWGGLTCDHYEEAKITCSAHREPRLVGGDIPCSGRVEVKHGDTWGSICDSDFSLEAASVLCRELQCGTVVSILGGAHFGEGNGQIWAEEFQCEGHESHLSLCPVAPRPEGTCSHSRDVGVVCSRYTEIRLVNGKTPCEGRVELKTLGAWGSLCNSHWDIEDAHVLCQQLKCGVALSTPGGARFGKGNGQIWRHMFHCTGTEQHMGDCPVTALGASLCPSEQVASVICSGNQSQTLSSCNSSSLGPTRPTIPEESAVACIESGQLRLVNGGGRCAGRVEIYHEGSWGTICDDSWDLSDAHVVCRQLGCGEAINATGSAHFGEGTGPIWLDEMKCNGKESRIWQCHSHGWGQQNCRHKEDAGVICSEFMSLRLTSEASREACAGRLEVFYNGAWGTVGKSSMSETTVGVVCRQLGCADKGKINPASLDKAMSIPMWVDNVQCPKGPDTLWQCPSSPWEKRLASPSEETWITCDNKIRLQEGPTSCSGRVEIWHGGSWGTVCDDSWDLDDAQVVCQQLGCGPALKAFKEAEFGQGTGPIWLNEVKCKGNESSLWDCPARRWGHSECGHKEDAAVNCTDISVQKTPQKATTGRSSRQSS

Binder	Kd	koff	kon
B14	0.51 nM	0.00033 s⁻¹	650000 M⁻¹ s⁻¹
B15	0.41 nM	0.00021 s⁻¹	520000 M⁻¹ s⁻¹
B16	0.47 nM	0.00022 s⁻¹	470000 M⁻¹ s⁻¹

target: T3, human CD163 domain 1-9, recombinant, …; experiment: as above; remark: another data set of the same source

Binder	Kd	koff	kon
B17	0.95 nM	0.00049 s⁻¹	520000 M⁻¹ s⁻¹
B18	0.8 nM	0.00037 s⁻¹	460000 M⁻¹ s⁻¹
